The target of assay [1] is T1, CD13 on the surface of mouse articular chondrocytes (mouse (endogenous in primary articular chondrocytes)) (UniProt P97449).
T1 sequence: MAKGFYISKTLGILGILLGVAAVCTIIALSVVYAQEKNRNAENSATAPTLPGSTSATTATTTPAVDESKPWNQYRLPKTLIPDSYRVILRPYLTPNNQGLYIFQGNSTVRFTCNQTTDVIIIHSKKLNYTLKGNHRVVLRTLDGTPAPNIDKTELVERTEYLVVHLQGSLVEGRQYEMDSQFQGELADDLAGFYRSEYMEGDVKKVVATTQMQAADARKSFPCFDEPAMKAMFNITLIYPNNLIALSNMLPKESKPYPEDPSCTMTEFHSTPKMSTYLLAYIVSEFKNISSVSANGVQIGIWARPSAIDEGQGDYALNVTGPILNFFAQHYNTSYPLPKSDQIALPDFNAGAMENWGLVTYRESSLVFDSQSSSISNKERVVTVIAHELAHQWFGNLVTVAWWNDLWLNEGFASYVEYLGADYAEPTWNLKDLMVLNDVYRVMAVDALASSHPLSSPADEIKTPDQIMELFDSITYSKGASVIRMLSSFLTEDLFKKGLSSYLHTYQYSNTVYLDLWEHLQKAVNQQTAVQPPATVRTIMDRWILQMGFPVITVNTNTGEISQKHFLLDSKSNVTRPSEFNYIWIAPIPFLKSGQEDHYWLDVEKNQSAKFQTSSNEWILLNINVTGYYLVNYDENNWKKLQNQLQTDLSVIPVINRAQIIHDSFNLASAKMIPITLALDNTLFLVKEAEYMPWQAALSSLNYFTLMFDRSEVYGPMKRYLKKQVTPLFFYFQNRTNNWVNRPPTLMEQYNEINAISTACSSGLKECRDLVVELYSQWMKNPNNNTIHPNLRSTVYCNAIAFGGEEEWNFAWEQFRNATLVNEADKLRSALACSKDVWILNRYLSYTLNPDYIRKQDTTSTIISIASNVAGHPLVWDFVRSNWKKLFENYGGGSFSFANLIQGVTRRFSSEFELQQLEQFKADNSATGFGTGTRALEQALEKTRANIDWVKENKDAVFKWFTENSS

The target in assay [2] is Human recombinant CD13 (human) (UniProt P15144).
UniProt P15144, sequence (P15144 whole entry): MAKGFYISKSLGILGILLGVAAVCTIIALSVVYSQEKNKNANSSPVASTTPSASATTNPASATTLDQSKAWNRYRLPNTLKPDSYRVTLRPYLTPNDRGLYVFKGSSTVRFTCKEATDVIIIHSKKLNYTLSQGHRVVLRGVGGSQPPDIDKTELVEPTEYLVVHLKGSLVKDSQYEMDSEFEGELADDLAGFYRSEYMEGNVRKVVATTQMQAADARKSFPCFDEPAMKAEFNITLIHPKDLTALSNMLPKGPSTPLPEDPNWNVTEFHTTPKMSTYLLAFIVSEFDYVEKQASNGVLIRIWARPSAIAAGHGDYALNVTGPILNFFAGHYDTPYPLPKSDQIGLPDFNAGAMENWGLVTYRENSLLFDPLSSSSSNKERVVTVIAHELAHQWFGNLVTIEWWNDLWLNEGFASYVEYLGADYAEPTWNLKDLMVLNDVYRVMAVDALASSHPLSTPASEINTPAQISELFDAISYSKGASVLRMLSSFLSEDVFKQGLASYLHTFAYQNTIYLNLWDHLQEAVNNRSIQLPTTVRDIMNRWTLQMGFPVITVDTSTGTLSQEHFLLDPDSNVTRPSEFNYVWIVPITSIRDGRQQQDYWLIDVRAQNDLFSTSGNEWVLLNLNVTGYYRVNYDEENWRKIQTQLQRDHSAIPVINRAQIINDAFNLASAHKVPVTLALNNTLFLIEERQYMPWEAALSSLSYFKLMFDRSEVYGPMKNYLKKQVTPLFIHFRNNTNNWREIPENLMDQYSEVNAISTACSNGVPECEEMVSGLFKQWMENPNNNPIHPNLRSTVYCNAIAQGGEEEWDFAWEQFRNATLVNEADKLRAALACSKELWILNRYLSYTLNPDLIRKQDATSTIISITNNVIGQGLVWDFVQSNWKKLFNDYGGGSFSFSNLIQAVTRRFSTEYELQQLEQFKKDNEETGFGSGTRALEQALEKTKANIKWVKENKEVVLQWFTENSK
The target in assay [3] is T1, CD13 on the surface of mouse articular chondrocytes (mouse (endogenous in primary articular chondrocytes)). This is another data set of the same source.
In assay [4] the target is Human recombinant CD13 (human) (UniProt P15144). The assay can be described thus: SPR; Biacore 3000; human recombinant CD13 amine-coupled to a CM5 chip (11,949 RU, 10 mM sodium acetate pH 5.0); analytes in HBS-EP (10 mM HEPES pH 7.4, 150 mM NaCl, 3 mM EDTA, 0.005% P20), 5 µl/min, 5 min injection, 8 min dissociation; 14-3-3ε 10 µM, antibodies 1 µg/ml; kinetics with 0, 5, 7.5, 10, 15, 20 µM 14-3-3ε; blank surface subtracted. For orientation: SPR reads the build-up and loss of mass on a sensor chip optically.

As usually defined, the Kd is the free concentration of one partner at which half of the binding sites on the other are occupied at equilibrium, for simple one-to-one binding. In assay [1], “Recombinant human 14-3-3ε (from UniProt P62258 1-255) (natural protein)” showed a decrease of 14-3-3ε (1 µg/ml)-induced MMP-13 mRNA expression (qRT-PCR) in murine chondrocytes by anti-CD13 blocking antibody AB108310, 1 and 5 µg/ml (47% to 88%) of 88%; a decrease of 14-3-3ε (1 µg/ml)-induced MMP-13 release (ELISA) in murine chondrocytes by anti-CD13 blocking antibody AB108310, 1 and 5 µg/ml (29% to 32%, P>0.05) of 32%; an inhibition of 14-3-3ε (1 µg/ml)-induced MMP-3 mRNA expression (qRT-PCR) in murine chondrocytes by anti-CD13 blocking antibody AB108310, 1 and 5 µg/ml (64% to 90%) of 90%; an inhibition of 14-3-3ε (1 µg/ml)-induced MMP-3 protein release (ELISA) in murine chondrocytes by anti-CD13 blocking antibody AB108310, 1 and 5 µg/ml (61% to 87%) of 87%. Further, in assay [2], the decrease of 14-3-3ε-induced MMP-3 mRNA expression (qRT-PCR) in human osteoarthritis chondrocytes (endogenous human CD13) by anti-CD13 blocking antibody SJ1D1, 1 µg/ml turned out to be 43% and the decrease of 14-3-3ε-induced MMP-3 protein release (ELISA) in human osteoarthritis chondrocytes (endogenous human CD13) by anti-CD13 blocking antibody SJ1D1, 1 µg/ml came to 59%. In assay [3], this substance gave a decrease of 14-3-3ε (1 µg/ml)-induced MMP-13 mRNA synthesis (qRT-PCR) in mouse chondrocytes by the synthetic CD13 peptide EFNpYVW, 0.5 and 5 µg/ml (30% to 56%) of 56%; an inhibition of 14-3-3ε (1 µg/ml)-induced MMP-3 mRNA production (qRT-PCR) in mouse chondrocytes by the synthetic CD13 peptide EFNpYVW, 0.5 and 5 µg/ml (48% to 62%) of 62%. In assay [4], the Kd turned out to be 2450 nM and the response (resonance units) at 10 µM was 78 RU.

(Values after publication PMC4582189.)
